Reference: publication PMC6321010, “Interaction of the GTPase Elongation Factor Like-1 with the Shwachman-Diamond Syndrome Protein and Its Missense Mutations” (International Journal of Molecular Sciences, 2018)
Residue numbers refer to the chain shown, from its start.

How the values were obtained:
Experiment in all cases: fluorescence polarisation; fluorescence anisotropy; 2 µL additions of 40-90 µM human EFL1 titrated into 300 µL of 0.1 µM Lumio Green-labelled human SBDS-FlAsH construct; 25 °C; 50 mM Tris-HCl pH 8, 300 mM NaCl, 5 mM β-mercaptoethanol; fitted to a single-site or a two different binding sites model
Settings in all cases: both partners purified
[1] = target: T1, human SBDS K67E with C-terminal FlAsH tag, labelled with Lumio Green (human, UniProt Q9Y3A5 1-250, K67E, Lumio Green dye (4',5'-bis(1,3,2-dithioarsolan-2-yl) fluorescein) on the C-terminal FlAsH tag)
T1 construct: human SBDS, SDS disease surface missense variant K67E (domain 1), in the three-domain protein; Missense variant found in patients; source: E. coli C41 (pRSET plasmid), purified by conventional chromatographic techniques; not shown: FlAsH tag (Cys-Cys-Pro-Gly-Cys-Cys), C-terminal, kept
T1 sequence (looked up): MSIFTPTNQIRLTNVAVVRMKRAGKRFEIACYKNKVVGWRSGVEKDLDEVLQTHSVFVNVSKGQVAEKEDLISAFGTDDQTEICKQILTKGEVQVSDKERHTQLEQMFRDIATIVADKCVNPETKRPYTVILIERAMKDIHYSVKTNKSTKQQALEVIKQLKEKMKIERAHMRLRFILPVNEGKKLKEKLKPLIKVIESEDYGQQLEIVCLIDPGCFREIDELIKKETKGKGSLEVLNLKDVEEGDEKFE

[2] = target: T2, human SBDS R175W with C-terminal FlAsH tag, labelled with Lumio Green (human, UniProt Q9Y3A5 1-250, R175W, Lumio Green dye (4',5'-bis(1,3,2-dithioarsolan-2-yl) fluorescein) on the C-terminal FlAsH tag)
T2 construct: Missense variant found in patients; source: E. coli C41 (pRSET plasmid), purified by conventional chromatographic techniques; not shown: FlAsH tag (Cys-Cys-Pro-Gly-Cys-Cys), C-terminal, kept
T2 sequence (looked up): T1 sequence (looked up) with E67K, R175W

[3] = target: T3, human SBDS domains 1-2 (residues 1-174) with C-terminal FlAsH tag, labelled with Lumio Green (human, UniProt Q9Y3A5 1-174, Lumio Green dye (4',5'-bis(1,3,2-dithioarsolan-2-yl) fluorescein) on the C-terminal FlAsH tag)
T3 construct: human SBDS, domains 1-2, residues 1-174; also called construct consisting of domains 1-2 of SBDS; source: E. coli C41 (pRSET plasmid), purified by conventional chromatographic techniques; not shown: FlAsH tag (Cys-Cys-Pro-Gly-Cys-Cys), C-terminal, kept
T3 sequence (looked up): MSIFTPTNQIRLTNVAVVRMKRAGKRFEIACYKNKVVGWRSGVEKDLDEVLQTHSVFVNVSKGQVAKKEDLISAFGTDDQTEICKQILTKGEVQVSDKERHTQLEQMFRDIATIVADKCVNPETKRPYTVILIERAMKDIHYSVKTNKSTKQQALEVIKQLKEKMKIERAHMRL

Kd1 (first binding site, two different binding sites model) [1]: 7.2 ± 2 µM
Kd2 (second binding site, two different binding sites model) [1]: 3 ± 1 µM
Kd1 (first binding site, two different binding sites model) [2]: 12 ± 4 µM
Kd2 (second binding site, two different binding sites model) [2]: 3.3 ± 0.6 µM
Kd1 (first binding site, two different binding sites model) [3]: 11.3 ± 1.8 µM
Kd2 (second binding site, two different binding sites model) [3]: 3.9 ± 0.2 µM
B1: human Elongation Factor Like-1 (EFL1) (enzyme)
chain: MVLNSLDKMIQLQKNTANIRNICVLAHVDHGKTTLADCLISSNGIISSRLAGKLRYMDSREDEQIRGITMKSSAISLHYATGNEEYLINLIDSPGHVDFSSEVSTAVRICDGCIIVVDAVEGVCPQTQAVLRQAWLENIRPVLVINKIDRLIVELKFTPQEAYSHLKNILEQINALTGTLFTSKVLEERAERETESQVNPNSEQGEQVYDWSTGLEDTDDSHLYFSPEQGNVVFTSAIDGWGFGIEHFARIYSQKIGIKKEVLMKTLWGDYYINMKAKKIMKGDQAKGKKPLFVQLILENIWSLYDAVLKKDKDKIDKIVTSLGLKIGAREARHSDPKVQINAICSQWLPISHAVLAMVCQKLPSPLDITAERVERLMCTGSQTFDSFPPETQALKAAFMKCGSEDTAPVIIFVSKMFAVDAKALPQNKPRPLTQEEIAQRRERARQRHAEKLAAAQGQAPLEPTQDGSAIETCPKGEEPRGDEQQVESMTPKPVLQEENNQESFIAFARVFSGVARRGKKIFVLGPKYSPLEFLRRVPLGFSAPPDGLPQVPHMAYCALENLYLLMGRELEYLEEVPPGNVLGIGGLQDFVLKSATLCSLPSCPPFIPLNFEATPIVRVAVEPKHPSEMPQLVKGMKLLNQADPCVQILIQETGEHVLVTAGEVHLQRCLDDLKERFAKIHISVSEPIIPFRETITKPPKVDMVNEEIGKQQKVAVIHQMKEDQSKIPEGIQVDSDGLITITTPNKLATLSVRAMPLPEEVTQILEENSDLIRSMEQLTSSLNEGENTHMIHQKTQEKIWEFKGKLEQHLTGRRWRNIVDQIWSFGPRKCGPNILVNKSEDFQNSVWTGPADKASKEASRYRDLGNSIVSGFQLATLSGPMCEEPLMGVCFVLEKWDLSKFEEQGASDLAKEGQEENETCSGGNENQELQDGCSEAFEKRTSQKGESPLTDCYGPFSGQLIATMKEACRYALQVKPQRLMAAMYTCDIMATGDVLGRVYAVLSKREGRVLQEEMKEGTDMFIIKAVLPVAESFGFADEIRKRTSGLASPQLVFSHWEIIPSDPFWVPTTEEEYLHFGEKADSENQARKYMNAVRKRKGLYVEEKIVEHAEKQRTLSKNK
notes: human EFL1, GTPase, said to comprise 1120 residues; the expressed protein is fused to a TEV recognition site and a hexahistidine tag at the C-terminus; also called human EFL1; GTPase Elongation Factor Like-1; source: S. cerevisiae BCY123 (pRS426 backbone, GAL1/10 promoter), purified
